Assay results reported in US7642046B2, “Method for monitoring recruitment of proteins to the intracellular domain of a receptor in intact cells” (priority 2001, dated 2010).
Values belong to the molecule of their own block, whether it stands above or below them.

Target: T1, LTβR (Homo sapiens, UniProt P25942+P36941)
T1 construct: cDNA fragments encoding for the transmembrane and cytoplasmic domains of the LTβR, TACI, the p75TNF receptor, CD27; expressed in transfected cells; host or cells: 293T
T1 sequence (P25942+P36941 fused): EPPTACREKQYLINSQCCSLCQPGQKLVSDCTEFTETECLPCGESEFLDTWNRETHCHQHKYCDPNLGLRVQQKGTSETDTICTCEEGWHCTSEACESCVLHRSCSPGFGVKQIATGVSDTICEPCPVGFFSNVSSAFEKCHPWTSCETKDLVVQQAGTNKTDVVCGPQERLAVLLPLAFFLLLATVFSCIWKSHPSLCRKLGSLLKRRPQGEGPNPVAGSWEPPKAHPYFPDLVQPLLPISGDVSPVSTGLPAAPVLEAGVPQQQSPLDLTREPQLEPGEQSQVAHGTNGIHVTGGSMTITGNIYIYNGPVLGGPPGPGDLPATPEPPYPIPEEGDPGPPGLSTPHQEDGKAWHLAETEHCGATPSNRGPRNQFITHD
Test: Recruitment assay with hybrid receptor (CD40 extracellular domain, LTβR transmembrane and intracellular domain)
Format: cell-based
Details: 293T cells, CD40 as relative standard
Experimental: The recruitment of TRAF to CD40 can be quantitatively measured using the assay described in example 1. For that purpose, the assay conditions were adjusted in such a way that TRAF expression was in significant excess over the expression of CD40. This was the case when the TRAF expression plasmid was used at a two to three fold excess over the CD40 expression plasmid. The CD40 bound TRAF concentration was measured as described in example 1. A reference extract containing CD40/TRAF complexes served as a standard in each assay. This standard extract consisted of a large pool extract from cells that had been co-transfected with the plasmids encoding CD40/TRAF1, CD40/TRAF2, CD40/TRAF3, CD40/TRAF5 and CD40/TRAF6. The extracts were tested for the presence of CD40/TRAF complexes and the complex concentrations in each extract were arbitrarily defined as 1000 U/ml. The extracts were frozen in small aliquots and kept at −80° C. until further use. By comparing unknown samples to these extracts, it was possible to determine the relative CD40-TRAF complex concentrations in arbitrary units. The necessary normalization for sample-to-sample variations in the CD40 expression was calculated with the following formula: […]
Recruitment of various TRAFs to receptors different to CD40, was tested by the recruitment assay described in example 1 by transforming cells with expression plasmids encoding hybrids receptors comprising the extracellular domain of CD40 and transmembrane and intracellular domain of anyone of the following receptors: BCMA (Madry et al. 1998 and Hatzoglou et al. 2000) the LTβR-receptor (Mosialos et al. 1995, Crowe et al. 1994, Nakano et al. 1996), TACI (von Bulow et al. 1997, Xia et al. 2000) the p75TNFR (Rothe et al. 1994) and the CD27 (Gravestein et al. 1998, Akiba et al. 1998) (for details of constructs see example 7). Measurement of TRAF recruitment to the signalling domains of BCMA the LTβR-receptor TACI the p75TNFR or the CD27 was carried out by co-transfecting 293T cells with a plasmid encoding anyone of the above hybrid receptors together with a plasmid encoding TRAF and measurement of the TRAF/Receptor complex using the ELISA sandwich described in example 1 and the quantitation as described in example 3. The assay with the hybrid receptors is schematically represented in FIG. 4A. The results shown in FIG. 4B indicate that, using the assay monitoring recruitment in intact cells, any TRAF recruiting receptor of the TNF/NGF family can be examined with the same antibody sandwich assay described in example 1 and the amount of TRAF-receptor/CD40 hybrid complex can be monitored as described in example 3. […] Recruitment of TRAF3 to all the receptors tested is similar. […]

recruitment to LTβR, folds higher than recruitment to CD40: 25 fold
B1: TRAF1: TNF receptor associated factor 1, adaptor protein overexpressed in 293T cells from pcDNA3 (protein, UniProt Q13077 1-416, looked up)
chain: MASSSGSSPRPAPDENEFPFGCPPTVCQDPKEPRALCCAGCLSENPRNGEDQICPKCRGEDLQSISPGSRLRTQEKAHPEVAEAGIGCPFAGVGCSFKGSPQSVQEHEVTSQTSHLNLLLGFMKQWKARLGCGLESGPMALEQNLSDLQLQAAVEVAGDLEVDCYRAPCSESQEELALQHFMKEKLLAELEGKLRVFENIVAVLNKEVEASHLALATSIHQSQLDRERILSLEQRVVELQQTLAQKDQALGKLEQSLRLMEEASFDGTFLWKITNVTRRCHESACGRTVSLFSPAFYTAKYGYKLCLRLYLNGDGTGKRTHLSLFIVIMRGEYDALLPWPFRNKVTFMLLDQNNREHAIDAFRPDLSSASFQRPQSETNVASGCPLFFPLSKLQSPKHAYVKDDTMFLKCIVETST
modifications: full-length
notes: TNF receptor associated factor 1, adaptor protein overexpressed in 293T cells from pcDNA3

recruitment to LTβR, folds higher than recruitment to CD40: about 60 fold
B2: TRAF2: TNF receptor associated factor 2, human adaptor protein expressed from pcDNA3 (protein, UniProt Q12933 1-501, looked up)
chain: MAAASVTPPGSLELLQPGFSKTLLGTKLEAKYLCSACRNVLRRPFQAQCGHRYCSFCLASILSSGPQNCAACVHEGIYEEGISILESSSAFPDNAARREVESLPAVCPSDGCTWKGTLKEYESCHEGRCPLMLTECPACKGLVRLGEKERHLEHECPERSLSCRHCRAPCCGADVKAHHEVCPKFPLTCDGCGKKKIPREKFQDHVKTCGKCRVPCRFHAIGCLETVEGEKQQEHEVQWLREHLAMLLSSVLEAKPLLGDQSHAGSELLQRCESLEKKTATFENIVCVLNREVERVAMTAEACSRQHRLDQDKIEALSSKVQQLERSIGLKDLAMADLEQKVLEMEASTYDGVFIWKISDFARKRQEAVAGRIPAIFSPAFYTSRYGYKMCLRIYLNGDGTGRGTHLSLFFVVMKGPNDALLRWPFNQKVTLMLLDQNNREHVIDAFRPDVTSSSFQRPVNDMNIASGCPLFCPVSKMEAKNSYVRDDAIFIKAIVDLTGL
modifications: full-length
notes: TNF receptor associated factor 2, human adaptor protein expressed from pcDNA3
